The text below walks through data of patent publication US7588931B2, “High arachidonic acid producing strains of Yarrowia lipolytica” (E. I. du Pont de Nemours and Company, priority 2004, dated 2009).

This assay concerns Yarrowia lipolytica strain ATCC #76982(Leu-). Put plainly: EDA substrate feeding of Y. lipolytica expressing codon-optimized Δ8 desaturase genes. It is filed as cell-based. Conditions: MM containing 10 μg of EDA substrate, about 24 hr at 30° C. As for the experimental part:
Yarrowia lipolytica strain ATCC #76982(Leu-) was transformed with pDMW240 (FIG. 8D) and pDMW255, respectively, as described in the General Methods. Yeast containing the recombinant constructs were grown in MM supplemented with EDA [20:2(11,14)]. Specifically, single colonies of transformant Y. lipolytica containing either pDMW240 (containing D8S-1) or pDMW255 (containing D8S-2) were grown in 3 mL MM at 30° C. to an OD600˜1.0. For substrate feeding, 100 μl of cells were then subcultured in 3 mL MM containing 10 μg of EDA substrate for about 24 hr at 30° C. The cells were collected by centrifugation, lipids were extracted, and fatty acid methyl esters were prepared by trans-esterification, and subsequently analyzed with a Hewlett-Packard 6890 GC.
A three amino acid difference between the protein sequence of the Δ8 desaturase deposited in GenBank (Accession No. AAD45877 [SEQ ID NO:43]) and in WO 00/34439 or Wallis et al. (Archives of Biochem. Biophys, 365:307-316 (1999)) (SEQ ID NO:252 herein) was found. Specifically, three amino acids appeared to be missing in GenBank Accession No. […]. […]

B1: D8S-3: synthetic Δ8 desaturase gene in pDMW261, SEQ ID NO:255 (protein)
chain: MKSKRQALSPLQLMEQTYDVSAWVNFHPGGAEIIENYQGRDATDAFMVMHFQEAFDKLKRMPKINPSFELPPQAAVNEAQEDFRKLREELIATGMFDASPLWYSYKISTTLGLGVLGYFLMVQYQMYFIGAVLLGMHYQQMGWLSHDICHHQTFKNRNWNNLVGLVFGNGLQGFSVTCWKDRHNAHHSATNVQGHDPDIDNLPPLAWSEDDVTRASPISRKLIQFQQYYFLVICILLRFIWCFQCVLTVRSLKDRDNQFYRSQYKKEAIGLALHWTLKALFHLFFMPSILTSLLVFFVSELVGGFGIAIVVFMNHYPLEKIGDPVWDGHGFSVGQIHETMNIRRGIITDWFFGGLNYQIEHHLWPTLPRHNLTAVSYQVEQLCQKHNLPYRNPLPHEGLVILLRYLAVFARMAEKQPAGKAL
modifications: D8S-3: synthetic delta 8-desaturase gene codon-optimized for Yarrowia lipolytica in pDMW261
For the molecule B1, the “desaturation of EDA to DGLA” value is “No desaturation of EDA to DGLA was observed”.
